The target in one test is T1, rat GIP receptor (rat, UniProt P43219 19-455).
T1 construct: whole, on cells; LGIPR2 cells also carry a cAMP-dependent VIP promoter-lacZ reporter; also called LGIPR2 cells; LGIRP2 cells
T1 sequence (looked up): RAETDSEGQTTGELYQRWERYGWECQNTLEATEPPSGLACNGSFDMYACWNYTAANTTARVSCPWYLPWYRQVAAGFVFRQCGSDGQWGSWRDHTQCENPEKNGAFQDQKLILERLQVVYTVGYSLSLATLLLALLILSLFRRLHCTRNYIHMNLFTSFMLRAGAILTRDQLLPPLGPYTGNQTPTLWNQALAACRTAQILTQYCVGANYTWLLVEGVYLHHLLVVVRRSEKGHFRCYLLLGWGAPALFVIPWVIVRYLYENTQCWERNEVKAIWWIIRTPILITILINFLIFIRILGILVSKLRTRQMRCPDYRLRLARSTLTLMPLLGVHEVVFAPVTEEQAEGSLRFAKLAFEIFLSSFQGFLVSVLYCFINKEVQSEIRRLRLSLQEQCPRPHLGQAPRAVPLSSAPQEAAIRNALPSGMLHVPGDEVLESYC
As to the kind of experiment: competition with [125I]GIP (porcine) for binding to LGIPR2 cells carrying the rat GIP receptor, room temperature. Here is the method: (§1) The specific activity of radiolabeled peptides was 10-50 μCi/mg (Hunter, et al., 1962, Nature, 194:495-498; Kieffer, et al., 1993, Can. J Physiol. Pharmacol., 71:917-922). Aliquots were lyophilized and reconstituted in assay buffer at 4° C. to a concentration of 3×10⁵ cpm/100 μl. […] The receptor binding buffer contained 138 mM NaCl, 5.6 mM KCl, 1.2 mM MgCl₂, 2.6 mM CaCl₂, 10 mM Hepes, 10 mM glucose, and 1% bovine serum albumin (BSA, fraction V, protease free, Sigma). […] Cells were washed once with PBS and then harvested with PBS-EDTA solution. βTC3 cells were then suspended in assay buffer at a density of 2×10⁶ cells/ml, and LGIPR2 cells were used at a density of 2.5×10⁵ cells/ml. […] Specific binding was defined as the difference between counts in the absence and presence of unlabeled peptide. […] Values are expressed as a percentage of maximum specific binding and are the mean ±SE, with assays performed in duplicate.

Test [1] concerns the target T2, GLP-1 receptor of βTC3 cells (mouse, UniProt O35659 22-463).
T2 construct: whole, on cells; also called βTC3 cell receptor; GLP-1 receptors
T2 sequence (looked up): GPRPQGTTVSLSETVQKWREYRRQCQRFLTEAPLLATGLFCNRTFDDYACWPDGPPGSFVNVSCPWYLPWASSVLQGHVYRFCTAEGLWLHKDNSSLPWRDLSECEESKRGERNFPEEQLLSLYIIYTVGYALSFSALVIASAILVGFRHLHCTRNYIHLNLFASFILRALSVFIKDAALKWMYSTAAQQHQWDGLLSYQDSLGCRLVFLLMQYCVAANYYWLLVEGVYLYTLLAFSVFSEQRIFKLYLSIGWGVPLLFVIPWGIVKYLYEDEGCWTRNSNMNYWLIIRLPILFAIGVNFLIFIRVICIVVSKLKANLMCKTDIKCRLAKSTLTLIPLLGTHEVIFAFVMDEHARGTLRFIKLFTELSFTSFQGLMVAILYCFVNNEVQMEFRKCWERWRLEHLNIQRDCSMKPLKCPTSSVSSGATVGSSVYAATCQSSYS
As to the kind of experiment: competition with [125I]GLP-1 for binding to βTC3 cells (GLP-1 receptor), room temperature. How it is done:
as §1

Where no end group is shown, it is not given here.

For ISDYSIAMDKIRQQDFVNWLLAQK-NH2 (also called ANTGIP; ANTGIIP) [GIP (7-30)-NH2], the IC50 with rat GIP receptor is 0.2 µM; in test [1] it was 80 µM.

(Values after US20080182795A1 (BOSTON MEDICAL CENTER, published 2008).)
